# Earlier results, collected in PMC8146069.
# Assays:
# His57 = His57 (UniProt position 406, VLTAAHCLLYP); experiment: kinetics
# Nterm16 = experiment: kinetics
# [1] = molecular target: r-hirudin (recombinant hirudin, type 1 or type 2) (UniProt P01050); experiment: pH profile of hirudin binding to thrombin (the measured quantity and the assay are not stated in this article)
# [2] = 25 °C (as for the free enzyme; inferred from the preceding sentence), µ = 0.1 (inferred from the preceding sentence), thrombin with small peptide substrate bound
# [3] = 25.0 ± 0.1 °C, thrombin reacting with NPMP
# [4] = 25.0 ± 0.1 °C, thrombin reacting with PPACK (2.2 × 10^−9 M, [I] << Ki)
# [5] = 25.0 ± 0.1 °C, thrombin reacting with paraoxon
# r-hirudin (recombinant hirudin, type 1 or type 2), sequence (P01050 whole entry): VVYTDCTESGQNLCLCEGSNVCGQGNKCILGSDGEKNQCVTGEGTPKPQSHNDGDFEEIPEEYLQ
"pKa, His57 of thrombin [1] [pH units]",Substance,pKa (His57; [2]),"pKa (His57; 25 °C, µ = 0.1, free thrombin)",pKa (His57; [3]),pKa (His57; [4]),pKa (His57; [5]),pKa (His57; thrombin binding r-hirudin),pKa (Nterm16; [2]),"pKa (Nterm16; 25 °C, µ = 0.1, free thrombin)",pKa (Nterm16; [3]),pKa (Nterm16; [4]),pKa (Nterm16; [5])
,alpha-thrombin (Homo sapiens),6.16 ± 0.25,6.7 ± 0.3,8.0 ± 0.1,7.3 ± 0.2,7.8 ± 0.2,7.1,8.95 ± 0.41,8.4 ± 0.4,8.6 ± 0.2,8.8 ± 0.3,9.3 ± 0.3
7.1,alpha-thrombin,,,,,,,,,,,
